Assay results published in US20260218147, “CAS ENDONUCLEASE AND GUIDE RNA VARIANTS WITH IMPROVED EFFICIENCY” (PIONEER HI-BRED INTERNATIONAL, INC., published 2026).
Changes are numbered by the printed parent chain.

T1: Cas-alpha 10 variant G81E (synthetic construct, UniProt P0DW62 SEQ:1-497)
T1 chain: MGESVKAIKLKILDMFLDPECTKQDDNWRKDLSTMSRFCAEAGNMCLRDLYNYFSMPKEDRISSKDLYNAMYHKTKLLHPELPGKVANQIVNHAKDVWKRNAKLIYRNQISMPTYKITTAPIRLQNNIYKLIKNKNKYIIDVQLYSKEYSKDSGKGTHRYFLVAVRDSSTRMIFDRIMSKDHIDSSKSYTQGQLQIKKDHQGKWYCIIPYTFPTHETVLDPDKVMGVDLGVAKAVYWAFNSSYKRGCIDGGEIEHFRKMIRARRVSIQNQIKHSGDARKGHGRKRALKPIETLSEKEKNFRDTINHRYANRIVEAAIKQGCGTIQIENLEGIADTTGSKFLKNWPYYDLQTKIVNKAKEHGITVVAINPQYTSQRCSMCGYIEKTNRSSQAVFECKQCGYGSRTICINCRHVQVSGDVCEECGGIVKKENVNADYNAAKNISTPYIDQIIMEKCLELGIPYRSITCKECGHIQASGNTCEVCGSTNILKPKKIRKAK

T2: Cas-alpha 10 wild type (Cas12f) (Syntrophomonas palmitatica, UniProt P0DW62 SEQ:1-497)
T2 sequence: T1 chain

T3: Cas-alpha 10 base variant (synthetic construct, UniProt P0DW62 SEQ:1-497)
T3 chain: T1 chain with A40G, E81G, A87K, T190K, T217H, K298S, H306F, T335R, I405N

T4: Cas-alpha 10 variant M45S+F54D+G81E+K85Q+G470D (synthetic construct, UniProt P0DW62 SEQ:1-497)
T4 chain: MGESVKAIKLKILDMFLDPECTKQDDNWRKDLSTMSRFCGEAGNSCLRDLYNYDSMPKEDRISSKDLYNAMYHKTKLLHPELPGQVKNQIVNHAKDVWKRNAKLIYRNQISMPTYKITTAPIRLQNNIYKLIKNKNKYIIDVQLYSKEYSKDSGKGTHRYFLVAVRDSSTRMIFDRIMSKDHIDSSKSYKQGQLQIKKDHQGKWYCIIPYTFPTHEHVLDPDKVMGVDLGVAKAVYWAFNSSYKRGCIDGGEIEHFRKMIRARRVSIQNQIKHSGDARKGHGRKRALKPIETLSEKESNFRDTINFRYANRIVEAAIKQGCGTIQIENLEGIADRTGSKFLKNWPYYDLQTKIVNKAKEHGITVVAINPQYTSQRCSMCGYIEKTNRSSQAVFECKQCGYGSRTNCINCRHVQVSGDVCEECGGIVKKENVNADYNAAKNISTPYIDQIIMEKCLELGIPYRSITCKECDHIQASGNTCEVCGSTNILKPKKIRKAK

T5: Cas-alpha 10 variant T34E+M45S+F54D+G81E+G470D (synthetic construct, UniProt P0DW62 SEQ:1-497)
T5 chain: T4 chain with T34E, Q85K

T6: Cas-alpha 10 variant M45S+F54D+G81E+G470D (synthetic construct, UniProt P0DW62 SEQ:1-497)
T6 chain: T4 chain with Q85K

T7: Cas-alpha 10 variant T34E+M45S+F54D+G81E+K85Q+G470D (synthetic construct, UniProt P0DW62 SEQ:1-497)
T7 chain: T4 chain with T34E

B1: sgRNA MS26 (recognition domain SEQ 327) ; MS26 target (ssRNA ; dsDNA)
RNA: GUUUCGCGCGCCAGGGCAGUUAGGUGCCCUAAAAGAGCGAAGUGGCCGAAAGGAAAGGCUAACGCUUCUCUAACGCUACGGCGACCUUGGCGAAAUGCCAUCAAUACCACGCGGCCCGAAAGGGUUCGCGCGAAACGAAAUAAGCGCGUGGAUUGAAACAAGUUCACGGCGUUCCAGGC
DNA 1: GTTCAAGTTCACGGCGTTCCAGGC
DNA 2: GCCTGGAACGCCGTGAACTTGAAC
B2: sgRNA ADE2-CR1 ; ADE2-CR1 target (ssRNA ; dsDNA)
RNA: AUUUACUCUGUUUCGCGCGCCAGGGCAGUUAGGUGCCCUAAAAGAGCGAAGUGGCCGAAAGGAAAGGCUAACGCUUCUCUAACGCUACGGCGACCUUGGCGAAAUGCCAUCAAUACCACGCGGCCCGAAAGGGUUCGCGCGAAACUGAGUAAUGAAAGUCGCAUCUUGCGUAAGCGCGUGGAUUGAAACCUACACUAAAGAAUCUUCAA
DNA 1: GTTCCTACACTAAAGAATCTTCAA
DNA 2: TTGAAGATTCTTTAGTGTAGGAAC

What was measured:
[1] = target: T1, Cas-alpha 10 variant G81E; assay: cell_activity; PAM GTTC; maize, 3x4 hr 45 C; settings: tags: SV40 NLS; chain copies: 2
Method: (§1) The resulting T-DNA was then placed into LBA4404, a thymine auxotrophic strain of Agrobacterium tumefaciens, containing Vir9, a separate plasmid encoding the Bo542 virulence genes (US20170121722A1 and WO 2017/078836). The resulting Agrobacterium strain was then used to transform nine-to-ten-day old immature maize embryos (approximately 2 mm in size) by submersion in 700A liquid media containing the strain at an optical density (OD) of 0.4 to 2.0 at 550 nm for 5 min. and then removed from the media and placed on solid co-cultivation medium overnight at 21° C. in the dark. Following T-DNA delivery, embryos are transferred to resting media, 13266R, and grown in the dark at 28° C. for 5-7 days. Next, coleoptiles were removed, and embryos transferred to selection media for 11-16 days and kept in the dark at 28° C. They were then moved to maturation media and incubated for 14-25 days in the dark at 28° C. and then subject to light for 2-5 days. Next, they were moved to rooting media and incubated at 26-28° C. under light for 14-28 days refreshing media as needed. To examine Cas-alpha nuclease-guide RNA activity, transformed tissue was incubated at 28° C., standard for Agrobacterium transformation, or at a range of temperatures lower or higher than 28° C.
(§2) In a third study, the efficiency of targeted mutagenesis of Cas-alpha 10 endonuclease variants, SEQ ID NOs:14, 48, 60, and 157, were compared when tested with two sgRNA recognition domains, SEQ ID NOs:61 and 327, at two target sites, MS26 and D8. Experiments were carried-out in Zea mays using Agrobacterium (Agro) transformation as described in Example 2. Two temperature regimens were performed. The first subjected Agro transformed embryos (once per day) to 45° C. for 4 hrs on days 3, 4, and 5 (3×4 hr 45° C.) after infection and the second to a continuous incubation at 37° C. on days 1-3 (1-3d 37° C.) following infection. For both regimens, embryos were placed at 28° C. before and after temperature treatment. […]

[2] = target: T2, Cas-alpha 10 wild type (Cas12f); assay: cell_activity; PAM GTTC; maize, 3x4 hr 45 C; settings: tags: SV40 NLS; chain copies: 2
Method: as §1, §2

[3] = target: T3, Cas-alpha 10 base variant; assay: cell_activity; PAM GTTC; 37 C overnight; settings: tags: SV40 NLS; chain copies: 2
Method: (§3) K85Q was also predicted with AlphaFold to be involved in PAM recognition. Therefore, it was converted back to a K residue for M45S+F54D+G81E+K85Q+G470D (SEQ ID NO: 50) and T34E+M45S+F54D+G81E+K85Q+G470D (SEQ ID NO: 54) and re-tested using two ADE2 target sites. Testing was performed as described above and fold improvement in targeted DNA cleavage was calculated as described above, relative to the original protein.

[4] = target: T4, Cas-alpha 10 variant …; assay: cell_activity; PAM GTTC; 37 C overnight; settings: tags: SV40 NLS; chain copies: 2
Method: as §3

[5] = target: T5, Cas-alpha 10 variant …; assay: cell_activity; PAM GTTC; 37 C overnight; settings: tags: SV40 NLS; chain copies: 2
Method: as §3

[6] = target: T6, Cas-alpha 10 variant …; assay: cell_activity; PAM GTTC; 37 C overnight; settings: tags: SV40 NLS
Method: as §3

[7] = target: T7, Cas-alpha 10 variant …; assay: cell_activity; PAM GTTC; 37 C overnight; settings: tags: SV40 NLS; chain copies: 2
Method: as §3

Row | Binder | activity [1] [% targeted mutagenesis] | activity [2] [% targeted mutagenesis] | activity [3] [% red yeast] | activity [4] [% red yeast] | activity [5] [% red yeast] | activity [6] [% red yeast] | activity [7] [% red yeast]
1 | B1 | 15.5 | 4.67 | – | – | – | – | –
2 | B2 | – | – | 2.76 | 5.19 | 64.5 | 45.4 | 7.48
